According to a protein production outcome set (Wang et al. 2014):

Experiment: label from the status in PepcDB records

Sequence | protein production
SGSSMEEKVVAVIMVGGPTKGTRFRPLSLNIPKPLFPIAGQPMVHHPISACKRIPNLAQIYLVGFYEEREFALYVSAISNELKVPVRYLREDKPHGSAGGLYHFRNLIMEDSPSHIFLLNCDVCCSFPLPKMLEAHRGYGGIGTLLVIKVSPESASQFGELVADPVTNELLHYTEKPETFVSDRINCGVYVFTPEIFNAIGDVSTQRKDRATLKRVSSFEALQPATRIPTDFVRLDQDILSPLAGKKRLYTYETMDFWEQIKSPGMSLRCSGLYLSQFRLTSPQLLASGDGTRSAIVIGDVYIHPSAKVHPTAKIGPNVSISANARVGPGVRLMSCIILDDVEIMENAVVTNAIVGWKSSIGRWSRVQAEGVYNSKLGVTILGDSVAVEDEVAVTSSIVLPNKTLNVSVQDEIIL | failed
MKFISTSLLLMLLVSSLSPVQGVLEVYYTSLRCRCVQESSVFIPRRFIDRIQILPRGNGCPRKEIIVWKKNKSIVCVDPQAEWIQRMMEVLRKRSSSTLPVPVFKRKIP | failed
MSTDVSSAENEGGATVRTARVPKYYRLKKHLLDMTRTQTPGTPVPPERTLAAEFDTSRTTVRQALQELVVEGRLERIQGKGTFVAKPKVSQALQLTSYTEDMRAQGLEPTSQLLDIGYITADDRLAGLLDITAGGRVLRIERLRMANGEPMAIETTHLSAKRFPALRRSLVKYTSLYTALAEVYDVHLAEAEETIETSLATPREAGLLGTDVGLPMLMLSRHSQDRTGQPVEWVRSVYRGDRYKFVARLKRPQD | not failed
MEESLKVGIAGLGTVGSSVVRILREKANSLTCQCGRSIKVVAVSARDKSRNRGIDLSDVKWFDSPVEMASSDEIDVFVELIGGESDVVYAAVKKALETGHHVVTANKALLAQHGGRLAVSAEKKGVFLHFEAAVAGGIPIIKVMRESLVSNHISRIYGILNGTCNYILTRMFTEGLSFKECLEDAQRLGYAEVDPTFDIGGNDTAHKLALLTSLAFGTAVSLDDIYVEGISNISQIDIRAADELGYRIKLLGVALKTETGIEQRVHPTMVPTSSMIAQIHGVTNALSIQSDLLGELLLSGPGAGGTATASAVIGDLADIAKARPGFQYAPVLGRPALGLAPHKKARISHHAGGYFIRLNVHDRAGVFAAVAKHMAGNHISLESIVQRSFVESQSVKTIILITHETTEVNVQQALAAIEKDGHLVAKSQFIRIEPMVLEHHHHHH | failed
MALQLGPHELQHVFSFLEARDLLRAAQVNKVWNEVSMTNELWRQLCLRRWAPCKALPVVLGTQTWRQYYFCRSELEFRVKSGRPQDFICKAISGHTGTIDQLAYVSPHEYRFDEKARSVVCTVSSDCTVRAWDLQEGTEMWSSPVQPAPLVNLVAYPQLQLVVTVDTQGLIRGWNTDTGSEWAFFSLPTSCSSMEACDHPEGSFLLVACAEGTLYTMTVPQLQVVFRVATFPHTPVSLMCSPDKQWVLVSAQDSDLGPKVFYTQPLLHPSEDRLPASATLPIRLSSRACWAPDEAARLMVTHRDDSGVHLVITTFELKANKSRDRVSILAQQLASFPLPDTMTPHLMQGHGSQVILLTSGSELVLFNIHGLQLMAFQDHQKPITSVWVDPDRVITAALDLSLCVYVWNKENTSPILKSCYHLLGGSHRWASGFTHVKSDSRSIAGVEARSTGTSILRSYCYKVQLG | failed
MNQRDVILDCEKKLLTAIQNNDVESLEVLLHDDLLFIIPSGETVTKETDIAAYSSGKIALRAVVPSDYIIRIIHDTVVVSVNIEIKGEYMEHTLDNTFRYLRVWKLFDGNWKVIAGSCTAIG | not failed
MSGFSPELIDYLEGKISFEEFERRREERKTREKKSLQEKGKLSAEENPDDSEVPSSSGINSTKSQDKDVNEGETSDGVRKSVHKVFASMLGENEDDEEEEEEEEEEEEEEETPEQPTAGDVFVLEMVLNRETKKMMKEKRPRSKLPRALRGLMGEANIRFARGEREEAILMCMEIIRQAPLAYEPFSTLAMIYEDQGDMEKSLQFELIAAHLNPSDTEEWVRLAEMSLEQDNIKQAIFCYTKALKYEPTNVRYLWERSSLYEQMGDHKMAMDGYRRILNLLSPSDGERFMQLARDMAKSYYEANDVTSAINIIDEAFSKHQGLVSMEDVNIAAELYISNKQYDKALEIITDFSGIVLEKKTSEEGTSEENKAPENVTCTIPDGVPIDITVKLMVCLVHLNILEPLNPLLTTLVEQNPEDMGDLYLDVAEAFLDVGEYNSALPLLSALVCSERYNLAVVWLRHAECLKALGYMERAAESYGKVVDLAPLHLDARISLSTLQQQLGQPEKALEALEPMYDPDTLAQDANAAQQELKLLLHRSTLLFSQGKMYGYVDTLLTMLAMLLKVAMNRAQVCLISSSKSGERHLYLIKVSRDKISDSNDQESANCDAKAIFAVLTSVLTKDDWWNLLLKAIYSLCDLSRFQEAELLVDSSLEYYSFYDDRQKRKELEYFGLSAAILDKNFRKAYNYIRIMVMENVNKPQLWNIFNQVTMHSQDVRHHRFCLRLMLKNPENHALCVLNGHNAFVSGSFKHALGQYVQAFRTHPDEPLYSFCIGLTFIHMASQKYVLRRHALIVQGFSFLNRYLSLRGPCQESFYNLGRGLHQLGLIHLAIHYYQKALELPPLVVEGIELDQLDLRRDIAYNLSLIYQSSGNTGMAQTLLYTYCSI | failed
MNPIPADVAAVVLAGGVGRRFGRPKALAMMDGISLVERAVEALSSGPADVYVSVSPALERPVARLVGSRRVIVDLVEQAPCEGPLRAFLTAASTLVSYSNLVFMPVDAPWASWRDLEPIYNASKAIGSGASYFSGEGIVHPLFLAARRKSLLTAAWTACWGRAEKRASAILRSLDPLILLGSSETRSPLALATVNTPQDLWRPSRVPAPAEGYILLEGHSILYKISSTMNSYYSALALEAEYKLYRRLGLLRLASHVLKDAAALNVSTSLIQQESMAGGLGLEHHHHHH | failed
MDGDFRTSFVREPAGLRPYPALVLNADYRPLSYYPLSLWPWQEAIKAAFLDRVSIVAEYDQVVRSQRAALRIPSVVVLKEFVSPQKRVAFTRFNLFLRDEFRCQYCGAKGDLTFDHVVPRARGGVTSWQNVVAACSPCNLHKGSKTLKQAGMRLARIPREPTPAEMQRHGQRFPPNHLHDSWLDYLYWDAELEALEHHHHHH | failed
MQEQVSNVRARIYKPAKSTMQSGHSKLKAWKLEFEPSCTQYTEPLMNWTGSHDTKQQVCLSFTTRELAIAYAVAHKIDYTVLQDNPRTIVPKSYADNFTKPRDM | not failed
MTHASILISVIIPAYNAAKFLPDAIASVEKQTFTDWELLIINDGSTDDTIEVVREHQKTSDCIYLINQTNQGVSAARNQGVAHSQGQIIAFLDADDQWLPDKLSQHWQHFQSNSRLGVSFAQVEILDQAGEPTGQVSTSRLNDLKPEYFLSENPTTTTSNWVIRKEVFTQVGGFCLDMSYSEDLEWLLRVSSTTDWQIQGINQVLTRYRTSSSGLSSNLYYMEAGWKQLVNRARIYAPQLVHNHFALAQAVHLRYLARRAFRLKLPARVGVDFITRALISDWRLLFHQPQRTFFTLLAVFGALVMERVFGLNTHRGSTAKAEPFRGSIP | failed
MSNYAAGLGKPGSGKRRIRDLLNQPDNRVCADCGASVPKWAKYQSIHLLKSCGVHRSLGTHILKVLSVTLDEWSDEEVDSMIETGGNASANSIYEAFVPDTCSKPGPDVNHDQRMRFIR | failed
ERYMQDFDLIFKELERWGPGSESDTLKALQKVPNKSMTLLEIGCGQGIATELFARHTDAMITAVDNEEFALKHLMEKMQQNGLEDKITTVCADMAKMPFETKSFDLIWSEGSAYIMGVQNALKAWKPLLSEDGVLVVSDLVWSTDKPSEGALSFWKKEYPDMVSVSERIKHAQQAGYEVIEHFSLSDAAWEAYYHPLIERLDTLKDKLIDSPVLIDFENEITAFKQRANEFDYEIFILRSR | failed
MKFSVLMSLYVKEQPAFLAECLASLTAQSYPADEIVILYDGKVTAELEVVVQQYAPILPLKQVRFAENRGLGNTLNDGLKYCSHEWVFRMDSDDICDVDRFAKQVAFIQQHPDVVVFGGQIAEFGQNVQDIVAYRAVPTTHQQIVKFSRFRCPFNHMTVAYQKSKVLAVGGYQGLQEDYTLWIKMIASGFLTANLTDVLVYARVGNGMVGRRRNFTQFKYEWQLYRLKTQAKLHSRIVGLGIFALRAIPRILPLAILQRIYKLLRK | failed
MGGDARRALFVPAPSPTLHRMLPDALRDTLEERLDATIESVASVRGGCIANACRLETDAAPFFLKHGPDEVARTFPGEAAGLEALGAADSPLVVPSVHDTAPATDDRPGFLVMEWVNPGREGRRFWDRFGEGLAALHRHTADAYGFGQDNFIGRLPQSNAWTDDWPTFFREQRLAPQVDMARERGRWRDGWGTALTTLYRRLPDILPRSPEPSVLHGDLWKGNYLVTAVGDPALVDPATYYGHREADLAMTELFGGYDDRFYDAYRSAWGLAPEYGTRRDVYNLYHLINHLNLFGGGYAAQVEDTLRPFK | failed
MSTTDNAFSATLEPIDTPKTTLKQRWWHIMDNWKVGIVPLPLFLLAGGLIALDCLGGKLPSDIVVMVATLAFFGFACGEFGKRLPVLGKLGAAAICATFIPSALVHYGLLPDVVIESTTKFYKSTNILYLYICCIIVGSIMSMNRTTLIQGFLKIFFPMLCGEVVGMLVGIGVGTLLGMEPFQVFFFIVLPIMAGGVGEGAIPLSMGYAALMHMEQGVALGRVLPMVMLGSLTAIVISGCLNQLGKRFPHLTGEGQLMPNRSHETRSLSESEGVSGKTDVGTLASGALLAVLLYMMGMLGHKLIGLPAPVGMLFLAVLLKLANVVSPRLQEGSQMVYKFFRTAVTYPILFAVGVAITPWQELVNAFTLTNLLVIVSTVSALVATGFLVGKKIGMHPIDVAIVSCCQSGQGGTGDVAILTAGNRMSLMPFAQIATRIGGAINVSLGLLFLSHYLA | failed
EDVSWIKPGQVSWEWWNGATPYGQDVTFKAGCNLETYKYFIDFASKFGIPYIIMDEGWAKSTRDPYTPNPDVDLHELIRYGKEKNVGIVLWLTWLTVEKNFDLFKTFNEWGIKGVKIDFMDRSDQWMVNYYERVAQEAARHHLFVDFHGSFKPAGLEYKYPNVLSYEGVRGMEQMGGCKPENSIYLPFMRNAVGPMDYTPGAMISMQPNIYRSERPNSASIGTRAYQMALFVIFESGLQMLADNPTLYYRNEDCTRFITQVPVTWDET | failed
MQNTPVILFDLDGTLIDSTEAVYEGFCVAFEKNGGAIPSQGKVVELIGHTLEDMFLRLGVPEVNITQHVLDYKAHYRIISKPKTNLLPKAREAILEASKFATLGVVTTKTGRFSRELLEYFEVLHFFKSIVGREDVTNAKPHPEPIFKALSEIGIKEVSAWMVGDTPLDLLAAQEAGIKSVAVLSGYAEEEMLRKYTLNVSKD | failed
MYTYDSDKTQDGEENLKCSLEKLAKKIIQNAGDTNGNNSTPNSNDDFAQVFGRERPGRVRCVGLGPTPSSFIQNRTTTTLSKEQEVLSLNNRVRELEDKLVKMSDLEDKVDKMNEVIYISTCRRQQQLHYMTSTMDRRRWLQVEGNDFK | failed
MAGGVDGPIGIPFPDHSSDILSGLNEQRTQGLLCDVVILVEGREFPTHRSVLAACSQYFKKLFTSGAVVDQQNVYEIDFVSAEALTALMDFAYTATLTVSTANVGDILSAARLLEIPAVSHVCADLLDRQIL | failed
MRLVIHGKNIDITDGIRSYLNQKIERATSHFQNVINEVDVHLSVARNRSTAPKQTAEVTVFVNGSVIRAEESSENLYASIDLVADKIARKLRKLKEKRQDKSRAKDTNSVVEPEVVTDLVGDRTPQLPEQVVRMKYFAMPPMTIQEALEHLEMVDHDFYVFRNRDTGEINVVYERNHGGYGVIQPRPTSNNHHHNTADAAAKATAKAGPLEHHHHHH | not failed
